In assay [1] the target is T1, soluble fusion protein comprising a DEC-205 extracellular domain (comprising all ten lectin-binding domains) … (human, UniProt O60449 28-1666).
T1 construct: not shown: antibody Fc domain
Description: SPR (Biacore 2000), DEC-205 fusion protein amine-coupled to CM5 chip, antibody flowed at 1.25-200 nM, 1:1 Langmuir fit, mean of two series. The source says: Low levels of ligand were immobilised to limit any effects of mass transport of analyte on kinetic parameters, such that the RMAX observed was in the order of 200 RU.
The antigen-antibody association and dissociation kinetics were followed for approximately 300 to 600 seconds in each case.
Biacore's kinetics wizard was used in each case to derive kinetic parameters from the concentration series of analyte diluted in HBS-NP running buffer. The association and dissociation curves were fitted to a 1:1 Langmuir binding model using Biacore™ kinetics wizard software (Biacore AB) according to the manufacturer's guidelines. For each antibody, the figures shown are the mean of two separate series of experiments, using separately prepared sensor chips in each case, (where ka=rate constant of association, kd=rate constant of dissociation, KD=dissociation equilibrium constant (measure of affinity), KA=association equilibrium constant, Rmax=maximum SPR response signal).
(In general: SPR reads the build-up and loss of mass on a sensor chip optically.)

For assay [2], the target named is human DEC-205 expressed on the cell surface (human, UniProt O60449 28-1722). Description: flow cytometry on CHO-S cells expressing human DEC-205, saturating antibody, PE anti-human IgG Fc.
The target of assay [3] is T1, soluble fusion protein comprising a …. Description: ELISA, plates coated with soluble DEC-205/Fc fusion protein, saturating antibody, AP anti-human IgG Fc, OD 405-650. For orientation: An ELISA detects its analyte on a solid surface through an enzyme-linked reagent.
The target in assay [4] is soluble fusion protein comprising a DEC-205 extracellular domain (comprising all ten lectin-binding domains) fused with an antibody Fc domain (human) (UniProt O60449). The experiment in a line: SPR (Biacore 2000), DEC-205 fusion protein amine-coupled to CM5 chip, antibody flowed at 1.25-200 nM, 1:1 Langmuir fit, mean of two series.
Sequence of soluble fusion protein comprising a DEC-205 extracellular domain (comprising all ten lectin-binding domains) fused with an antibody Fc domain (human) (O60449 28-1666 K1321N/Y1391H): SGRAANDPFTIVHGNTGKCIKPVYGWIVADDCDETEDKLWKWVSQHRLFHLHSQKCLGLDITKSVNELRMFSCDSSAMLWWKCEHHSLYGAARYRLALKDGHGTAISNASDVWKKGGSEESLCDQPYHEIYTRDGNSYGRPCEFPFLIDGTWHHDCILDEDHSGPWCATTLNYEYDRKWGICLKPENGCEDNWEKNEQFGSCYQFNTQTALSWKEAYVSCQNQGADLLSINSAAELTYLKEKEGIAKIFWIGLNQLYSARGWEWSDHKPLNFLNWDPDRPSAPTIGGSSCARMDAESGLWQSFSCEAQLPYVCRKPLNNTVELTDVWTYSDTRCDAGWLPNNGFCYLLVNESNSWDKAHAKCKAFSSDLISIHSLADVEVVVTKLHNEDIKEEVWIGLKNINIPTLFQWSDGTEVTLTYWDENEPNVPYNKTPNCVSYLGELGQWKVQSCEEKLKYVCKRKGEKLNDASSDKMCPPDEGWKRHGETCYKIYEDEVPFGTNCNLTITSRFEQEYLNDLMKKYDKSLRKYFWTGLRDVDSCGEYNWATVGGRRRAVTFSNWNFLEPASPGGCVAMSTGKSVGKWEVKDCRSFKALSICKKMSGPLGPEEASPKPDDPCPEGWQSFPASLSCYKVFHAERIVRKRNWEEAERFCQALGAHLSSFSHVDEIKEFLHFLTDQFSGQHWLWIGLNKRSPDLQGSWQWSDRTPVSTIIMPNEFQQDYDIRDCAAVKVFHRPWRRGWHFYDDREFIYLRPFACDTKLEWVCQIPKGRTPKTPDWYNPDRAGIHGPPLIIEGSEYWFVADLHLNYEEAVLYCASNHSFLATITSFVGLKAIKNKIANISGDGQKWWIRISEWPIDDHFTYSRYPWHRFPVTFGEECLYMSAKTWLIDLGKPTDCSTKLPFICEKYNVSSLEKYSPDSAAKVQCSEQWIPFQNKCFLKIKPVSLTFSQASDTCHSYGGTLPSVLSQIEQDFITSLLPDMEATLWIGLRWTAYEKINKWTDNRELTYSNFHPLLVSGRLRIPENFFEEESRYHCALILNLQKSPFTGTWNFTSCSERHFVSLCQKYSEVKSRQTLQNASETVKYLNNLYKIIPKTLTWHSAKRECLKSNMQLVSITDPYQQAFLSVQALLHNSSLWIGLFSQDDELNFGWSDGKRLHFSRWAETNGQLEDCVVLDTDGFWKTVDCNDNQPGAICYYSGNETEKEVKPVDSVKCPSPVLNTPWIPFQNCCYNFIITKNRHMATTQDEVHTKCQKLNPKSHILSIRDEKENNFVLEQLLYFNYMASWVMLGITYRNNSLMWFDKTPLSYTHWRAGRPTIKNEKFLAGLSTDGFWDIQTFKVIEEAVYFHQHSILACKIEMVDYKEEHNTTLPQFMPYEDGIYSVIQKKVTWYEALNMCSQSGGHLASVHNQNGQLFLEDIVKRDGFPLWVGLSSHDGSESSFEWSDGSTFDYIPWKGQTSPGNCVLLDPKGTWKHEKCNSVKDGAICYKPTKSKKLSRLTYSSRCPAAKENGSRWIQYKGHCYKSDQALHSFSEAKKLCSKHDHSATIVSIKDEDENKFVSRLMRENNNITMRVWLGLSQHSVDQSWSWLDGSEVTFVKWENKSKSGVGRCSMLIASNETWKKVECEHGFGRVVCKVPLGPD

T1 sequence (O60449 28-1666 K1321N/Y1391H): as above
Sequence of human DEC-205 expressed on the cell surface (O60449 28-1722 K1321N/Y1391H limits assumed): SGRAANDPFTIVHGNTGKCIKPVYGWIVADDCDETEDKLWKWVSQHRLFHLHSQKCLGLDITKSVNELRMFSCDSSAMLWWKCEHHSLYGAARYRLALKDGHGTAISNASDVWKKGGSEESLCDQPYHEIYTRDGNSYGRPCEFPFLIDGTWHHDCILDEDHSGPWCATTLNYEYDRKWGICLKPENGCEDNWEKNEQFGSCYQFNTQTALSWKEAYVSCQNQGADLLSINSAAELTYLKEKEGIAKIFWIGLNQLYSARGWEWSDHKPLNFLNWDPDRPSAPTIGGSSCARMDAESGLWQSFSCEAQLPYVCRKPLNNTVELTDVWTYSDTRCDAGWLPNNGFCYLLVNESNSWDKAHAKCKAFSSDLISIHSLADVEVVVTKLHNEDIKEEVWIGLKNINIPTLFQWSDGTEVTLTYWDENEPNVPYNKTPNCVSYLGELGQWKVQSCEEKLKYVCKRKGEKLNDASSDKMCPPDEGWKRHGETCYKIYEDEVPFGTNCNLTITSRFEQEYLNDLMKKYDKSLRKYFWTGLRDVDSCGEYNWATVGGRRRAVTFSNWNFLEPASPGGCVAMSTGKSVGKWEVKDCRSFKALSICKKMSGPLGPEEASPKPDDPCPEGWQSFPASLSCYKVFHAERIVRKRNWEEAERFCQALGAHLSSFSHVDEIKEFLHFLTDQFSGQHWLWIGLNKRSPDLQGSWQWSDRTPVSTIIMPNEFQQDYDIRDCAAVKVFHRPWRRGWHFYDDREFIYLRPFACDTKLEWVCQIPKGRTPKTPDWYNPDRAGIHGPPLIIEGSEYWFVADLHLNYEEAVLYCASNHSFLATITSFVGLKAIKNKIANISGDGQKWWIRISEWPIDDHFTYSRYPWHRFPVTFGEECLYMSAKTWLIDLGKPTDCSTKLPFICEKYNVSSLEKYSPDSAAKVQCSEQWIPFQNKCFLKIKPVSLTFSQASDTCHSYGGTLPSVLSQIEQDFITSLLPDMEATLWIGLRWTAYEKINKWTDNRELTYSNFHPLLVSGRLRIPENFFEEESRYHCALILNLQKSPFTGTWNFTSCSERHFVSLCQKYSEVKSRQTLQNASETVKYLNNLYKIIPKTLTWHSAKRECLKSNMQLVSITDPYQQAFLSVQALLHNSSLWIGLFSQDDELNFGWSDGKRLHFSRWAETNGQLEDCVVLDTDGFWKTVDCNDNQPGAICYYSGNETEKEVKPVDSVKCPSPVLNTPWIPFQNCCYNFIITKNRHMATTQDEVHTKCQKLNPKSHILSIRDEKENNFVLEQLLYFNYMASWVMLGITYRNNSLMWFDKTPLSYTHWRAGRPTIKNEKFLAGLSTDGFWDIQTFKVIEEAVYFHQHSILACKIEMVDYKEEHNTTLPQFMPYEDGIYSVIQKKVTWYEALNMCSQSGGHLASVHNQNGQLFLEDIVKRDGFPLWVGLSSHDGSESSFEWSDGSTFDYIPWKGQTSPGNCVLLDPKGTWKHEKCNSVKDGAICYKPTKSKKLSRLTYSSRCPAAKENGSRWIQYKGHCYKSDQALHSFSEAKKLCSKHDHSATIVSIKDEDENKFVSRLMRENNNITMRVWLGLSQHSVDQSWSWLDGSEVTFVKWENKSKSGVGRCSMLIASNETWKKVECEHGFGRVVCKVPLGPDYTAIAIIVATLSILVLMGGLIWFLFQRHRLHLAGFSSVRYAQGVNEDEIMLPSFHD

B1: 3C7-3A3 (antibody, V domains shown)
VH: QVQLVESGGGVVQPGRSLRLSCAASGFTFSSYNMHWVRQAPGKGLEWVAFIWYDGSNKYYGDSVKGRFTISRDNSKNTLYLQMNSLRAEDTAVYYCAREELGIGWYFDLWGRGTLVTVSS
VL: EIVLTQSPATLSLSPGERATLSCRASQSVSSYLAWYQQKPGQAPRLLIYDASNRATGIPARFSGSGSGTDFTLTISSLEPEDFAVYYCQQRRTFGQGTKVEIK
notes: Human IgG (kappa) from a hybridoma, protein A purified; also called mAb #3; HuMab 3C7-3A3
The term Kd denotes a measure of binding affinity in units of concentration. The low end stands for a tighter complex, the high end for a looser complex. The koff is the rate constant with which the complex falls apart. A high value points to a short-lived complex. Usually kon stands for the rate constant with which the complex forms. High values mean faster complex formation, low ones slower complex formation. In assay [1], B1 displayed a Ka of 5.2e+08 M⁻¹, a Kd of 5.6 nM, an off-rate constant (koff) of 0.00076 s⁻¹ and a kon of 170000 M⁻¹ s⁻¹.

B2: 5A8-1F1 (antibody, V domains shown)
VH: QVQLVESGGGVVQPGRSLRLSCAASGFTFSTYGMHWVRQAPGKGLEWVAIIWYDGGNKYYADSVKGRFTISRDNSKNTLYLQMNSLRAEDTAVYYCARDFYWYFDLWGRGTLVTVSS
VL: B1 VL
notes: Human IgG (kappa) from a hybridoma, protein A purified; also called mAb #2; HuMab 5A8-1F1
In assay [1], B2 yielded a Ka of 2.1e+09 M⁻¹, a Kd of 1.5 nM, an off-rate (koff) of 0.0002 s⁻¹ and a kon of 360000 M⁻¹ s⁻¹.

B3: 3G9-2D2 (antibody, V domains shown)
VH: QVQLVESGGGVVQPGRSLRLSCAASGFTFSNYGMYWVRQAPGKGLEWVAVIWYDGSNKYYADSVKGRFTISRDNSKNTLYLQMNSLRAEDTAVYYCARDLWGWYFDYWGQGTLVTVSS
VL: EIVLTQSPATLSLSPGERATLSCRASQSVSSYLAWYQQKPGQAPRLLIYDASNRATGIPARFSGSGSGTDFTLTISSLEPEDFAVYYCQQRRNWPLTFGGGTKVEIK
notes: Human IgG (kappa) from a hybridoma, protein A purified; also called mAb #8; HuMab 3G9-2D2
In assay [1], B3 yielded a Ka of 4.7e+09 M⁻¹, an equilibrium dissociation constant (Kd) of 0.24 nM, a koff of 0.00019 s⁻¹ and a kon of 900000 M⁻¹ s⁻¹.

B4: 3D6-2F4 (antibody, V domains shown)
VH: QVQLVESGGGVVQPGRSLRLSCAASGFIFSIYGMHWVRQAPGKGLEWVAVIWYDGSNKYYADSVKGRFTISRDNSKNTLYLQMNSLRAEDTAVYYCARAPHFDYWGQGTLVTVSS
VL: DIQMTQSPSSLSASVGDRVTITCRASQGISSWLAWYQQKPEKAPKSLIYAASSLQSGVPSRFSGSGSGTDFTLTISSLQPEDFATYYCQQYNSYPYTFGQGTKLEIK
notes: Human IgG (kappa) from a hybridoma, protein A purified; also called mAb #5; HuMab 3D6-2F4
In assay [1], B4 displayed a Ka of 1.5e+10 M⁻¹, a Kd of 0.08 nM, a koff of 0.00012 s⁻¹ and a kon of 1.8e+06 M⁻¹ s⁻¹.

B5: 3D6-4C8 (antibody, V domains shown)
VH: B4 VH
VL: AIQLTQSPSSLSASVGDRVTITCRASQGISSALAWYQQKPGKAPKLLIYDASSLESGVPSRFSGSGSGTDFTLTISSLQPEDFATYYCQQFNSYPLTFGGGTKVEIK
notes: Human IgG (kappa) from a hybridoma, protein A purified; also called HuMab 3D6-4C8
For B5, the binding result in assay [2] and in assay [3] was “binds” in each case.

B6: 2D3-1F5-2A9 (antibody, part only; not given: light chain, V domains shown, part only)
VH: EVQLVQSGGGLVHPGGSLRLSCAGSGFTFSNYAMHWVRQAPGKGLEWVSTIGTGGGTPYADSVKGRFTISRDNAKNSLYLQMNSLRAEDMAVYYCALSAFDVWGQGTMVTVSSASTKGPSVFPLA
In assay [4], B6 gave a Ka of 1.5e+10 M⁻¹, a dissociation constant (Kd) of 0.068 nM, a koff of 2.2e-05 s⁻¹ and a kon of 330000 M⁻¹ s⁻¹.

The values above are taken from US20090175880A1 (published 2009).
